Reference: US8030017B2, “Thermostable luciferases and methods of production” (Promega Corporation, priority 1997, dated 2011)

B1: Luc49-7C6: mutant luciferase, SEQ ID NO:14 (protein)
chain: MADKNILYGPEPFYPLADGTAGEQMFYALSRYADISGCIALTNAHTKENVLYEEFLKLSCRLAESFKKYGLKQNDTIAVCSENGLQFFLPIIASLYLGIIAAPVSDKYIERELIHSLGIVKPRIIFCSKNTFQKVLNVKSKLKYVETIIILDLNEDLGGYQCLNNFISQNSDINLDVKKFKPYSFNRDDQVALVMFSSGTTGVSKGVMLTHKNIVARFSLAKDPTFGNAINPTTAILTVIPFHHGFGMMTTLGYFTCGFRVVLMHTFEEKLFLQSLQDYKVESTLLVPTLMAFLAKSALVEKYDLSHLKEIASGGAPLSKEIGEMVKKRFKLNFVRQGYGLTETTSAVLITPNNDVRPGSTGKIVPFHAVKVVDPTTGKILGPNEPGELYFKGDMIMKGYYNNEEATKAIINKDGWLRSGDIAYYDNDGHFYIVDRLKSLIKYKGYQVAPAEIEGILLQHPYIVDAGVTGIPDEAAGELPAAGVVVQTGKYLNEQIVQNFVSSQVSTAKWLRGGVKFLDEIPKGSTGKIDRKVLRQMFEKHTNG
modifications: Mutant luciferase
B2: Luc78-0B10: mutant luciferase, SEQ ID NO:19 (protein)
chain: MADKNILYGPEPFYPLADGTAGEQMFDALSRYADISGCIALTNAHTKENVLYEEFLKLSCRLAESFKKYGLKQNDTIAVCSENGLQFFLPVIASLYLGIIAAPVSDKYIERELIHSLGIVKPRIIFCSKNTFQKVLNVKSKLKSVETIIILDLNEDLGGYQCLNNFISQNSDSNLDVKKFKPYSFNRDDQVALVMFSSGTTGVPKGVMLTHKNIVARFSLAKDPTFGNAINPTTAILTVIPFHHGFGMMTTLGYFTCGFRVVLMHTFEEKLFLQSLQDYKVESTLLVPTLMAFLAKSALVEKYDLSHLKEIASGGAPLSKEIGEMVKKRFKLNFVRQGYGLTETTSAVLITPKGDARPGSTGKIVPFHAVKVVDPTTGKILGPNEPGELYFKGAMIMKGYYNNEEATKAIIDNDGWLRSGDIAYYDNDGHFYIVDRLKSLIKYKGYQVAPAEIEGILLQHPYIVDAGVTGIPDEAAGELPAAGVVVQTGKYLNEQIVQDFVSSQVSTAKWLRGGVKFLDEIPKGSTGKIDRKVLRQMFEKHTNG
modifications: Mutant luciferase

Key:
[1] = Robotic quantitative screen of E. coli lysates: luminescence activity (Li), expression/specific activity; assay type: biochemical; conditions: relative value
Protocol: A plate containing cells is retrieved from the carousel and placed on the shaker for 3-5 minutes to fully mix the cells. The cells tend to settle from solution upon standing.
To measure Optical Density (O.D.), the plate is moved from the shaker to the locator near the luminometer; the lid is removed and the plate placed into the luminometer. The O.D. is measured using a 620 nm filter.
To prepare a cell lysate, the plate of cells is first retrieved from the refrigerator and mixed on the shaker to resuspend the cells. A new plate from the carousel without a lid is placed in the reagent dispenser and 20 μl of Buffer A is added to each well. This is placed in the pipetting station.
The plate is then moved to the reagent dispenser to add 175 μl of Buffer B, and then mixed on the shaker for about 15 minutes or more. The combination of the freeze/thaw and Buffer B will cause the cells to lyse.
(§1) One daughter plate is placed in the luminometer and the 1X assay method is used. After the assay, the plate is placed in the ambient incubator, and the second daughter plate is placed in the luminometer. For the second plate, the 0.02X assay method is used. This plate is discarded, and the first plate is returned from the incubator to the luminometer. The repeat assay method is used (i.e., no reagent is injected). Afterwards, the plate is again returned to the ambient incubator.
1X Assay reagent: 5 μM Luciferin; 175 μM ATP; 20 mM Tricine, pH 8.0; 0.1 mM EDTA
(§2) The following criteria were used for screening purposes. The temperature chosen for the enzyme stability parameter was such that the parent enzyme would decay 100 to 1000 fold over 10 hours (see Table 1). Criteria 1 is achieved manually; data for criteria 2-6 is generated by robotic analysis. For all criteria, the maximum value as described is selected. • 1. In vivo screen. The brightest clones are selected at a given temperature. • 2. Expression/specific activity. The value for normalized luminescence is calculated as the ratio of luminescence to optical density. The value is reported as the ratio with the reference value. • 3. Enzyme stability. Measurements of normalized luminescence of the incubated samples (3 taken over about 15 hours) are fitted to In(L)=In(L0)−(t/τ), where L is normalized luminescence and t is time. τ is a measure of the enzyme stability. The value is reported as the ratio with the reference value, and the correlation coefficients are calculated. • 4. Substrate binding. Measurements of normalized luminescence with 1X and 0.02X are taken at the initial reading set, and 1X and 0.06X are taken at the 5 hour set. The ratio of the 0.02X:1X and 0.06X:1X gives the relative luminescence at 0.02X and 0.06X concentrations. These values, along with the relative luminescence at 1X (i.e., 1), are fitted to a Lineweaver-Burk plot to yield the Km:app,total for the substrates ATP, luciferin, and CoA. The values are reported as the inverse ratio with the reference value, and the correlation coefficients are calculated. • 5. Signal stability. The luminescence of the initial IX luminescent reactions are re-measured 3 additional times over about 15 hours. These values are fitted to In(L)=In(L0)−(t/τ) and the integral over t (15 hours) is calculated. Signal stability is then calculated as S=(1−int(L)/L0t)^2. The values are reported as the inverse ratio with the reference value, and the correlation coefficients are calculated. • 6. Composite fitness. The values of criteria 2 through 5 are combined into a single composite value of fitness (or commercial utility). This value is based on a judgment of the relative importance of the other criteria. This judgment is given below:
Normalize luminescence data: For each measurement of luminescence in the eight daughter plates, the normalized luminescence is calculated by dividing the relative light units by the optical density of the original plate. […]

[2] = Robotic quantitative screen of E. coli lysates: enzyme stability (tau) at elevated temperature; assay type: physicochemical; conditions: relative value
Protocol: Two white assay plates (Labsystems #9502887) are obtained from the plate feeder and placed in the pipetter. The incubation plate from the shaker is placed in the pipetter, and the lid removed and placed on the nearby locator. Two daughter plates are made using the pipetting procedure (see “Create Pair of Daughter Plates from Incubation Plate”). Afterwards, the lid is replaced on the parent plate, and the plate is placed in a high temperature incubator. [ranging from 31° C. to about 65° C. depending on the clone.]
To begin the second set of measurements, the plate from the high temperature incubator is placed in the shaker to mix.
In the final set of measurements, the plate from the high temperature incubator is again placed in the shaker to mix.
as §2
Calculate enzyme stability (τ): For each sample, use linear regression to fit In(L1x)=In(L0)−(t/τ) using the three luminescence measurements with 1X substrate concentrations (Plates 1, 5, 8). Also calculate the regression coefficient.
Calculate the reference-normalized values: For the criteria parameter of each sample, a reference-normalized value is determined by calculating the ratio or inverse ratio with the respective reference value. The reference-normalized values are Li/Lir, τ/τr, Kmr/Km:app,total, and Sr/S, where reference values are calculated from the equations of the appropriate reference surface.
“Enzyme stability” was determined by the rate of activity loss from cell lysates over 10 hours. In successive rounds of evolution the incubation temperature of the lysates was increased.
Robotic Automation: Robotic automation was used in the quantitative screens to accurately perform the large number of required quantitative assays on the cultured cells. […]

[3] = Robotic quantitative screen of E. coli lysates: signal stability (S), sustained enzymatic turnover; assay type: biochemical; conditions: inverse ratio with reference
Protocol: as §1
The plate in the ambient incubator is returned to the luminometer and the repeat assay method is again used. The plate is returned afterwards to the ambient incubator.
The plate in the ambient incubator is returned to the luminometer and the repeat assay method is again used. The plate is discarded afterwards.
as §2
Calculate signal stability (S): For each sample, use linear regression to fit In(L)=In(L0)[…] using the four luminescence measurements of the initial microplate with 1X substrate concentrations (Plates 1, 3, 4, and 7). Also calculate the regression coefficient. From the calculated values of T and L0, calculate the integral of luminescence by int(L)=τL0(1−exp(−tf/τ)), where tf is the average time of the last measurement (e.g., 15 hours). The signal stability is calculated as S=(1−int(L)/Litf)^2, where Li is the initial measurement of normalized luminescence with 1× substrate concentration (Plate 1).
[Note: To correct for evaporation, an equation S=(1+K−int(L)/Litf)^2, may be used where 1/K=2(relative change of liquid volume at tf).]
Calculate the reference-normalized values: For the criteria parameter of each sample, a reference-normalized value is determined by calculating the ratio or inverse ratio with the respective reference value. […]

[4] = Thermostability (half-life, retained activity) of luciferases incubated in aqueous solution at different temperatures; assay type: physicochemical; conditions: for thermostability compared with parent enzyme: 4° C., times of less than 15 days (FIG. 49); for half-life: 22° C. (FIGS. 9, 10); for Thermostability Of Luciferase Activity (Half-Life In Hours): purified enzyme
Description: As defined herein, a “thermostable” enzyme, e.g., a luciferase, or an enzyme which has “thermostability”, is an enzyme which under certain conditions, e.g., at certain temperature, in aqueous solution and/or for certain periods of time, has an increased retention of activity relative to a reference enzyme. For example, for a thermostable luciferase, a reference luciferase may be native wild-type luciferase or recombinant wild-type luciferase. Preferably, for beetle luciferases, the activity is luminescence under conditions of saturation with luciferin and ATP. One measure of thermostability of an enzyme is the half-life of the enzyme in an aqueous solution (the time over which 50% of the activity is lost) at a stated temperature.
(§3) Protein purification: Four mutants that are described herein (Luc[T249M], Luc49-7C6, Luc78-0B10, and Luc90-1B5) were purified using a previously published procedure (Hastings et al., 1996).
[…] Enzyme stability was determined from diluted proteins incubated at different temperatures, and aliquots were removed at different time points. A linear regression of the natural log of the luminescence and time was calculated. Half-life was calculated as the 1n(0.5)/slope of the regression.

[5] = Michaelis-Menten constant for luciferin of purified mutants; assay type: biochemical; conditions: purified enzyme
Description: (§4) Substrate binding was screened by measuring an apparent composite Km (see Example 2) for luciferin and ATP. […] The Km for luciferin rose while the Km for ATP declined (Table 3). The reason for this change is unknown, although it can be speculated that more efficient release of oxyluciferin or luciferin inhibitors could lead to more rapid enzyme turnover.
as §3

[6] = Michaelis-Menten constant for ATP of purified mutants; assay type: biochemical; conditions: purified enzyme
Description: as §4, §3

[7] = Control is Luc46-2H3 at 54° C. (=1)
[8] = Room Temperature (about 25° C.)
[9] = Control is Luc71-5D4 at 60° C. (=1)

Km [5] | Molecule | Luminescence (Li) [1, 7] | Enzyme stability (tau) [2, 7] | Signal stability (S) [3, 7] | thermostability compared with parent enzyme [4] | half-life [4] | Thermostability Of Luciferase Activity (Half-Life In Hours) ([4]; 37° C.) | half-life calculated from regression of log luminescence ([4]; 50° C. (FIG. 7)) | Thermostability Of Luciferase Activity (Half-Life In Hours) ([4]; 50° C.) | half-life calculated from regression of log luminescence ([4]; 60° C. (FIGS. 6, 8)) | Thermostability Of Luciferase Activity (Half-Life In Hours) ([4]; 60° C.) | Thermostability Of Luciferase Activity (Half-Life In Hours) [4, 8] | Km [6] | Luminescence (Li) [1, 9] | Enzyme stability (tau) [2, 9] | Signal stability (S) [3, 9] | half life calculated from regression of log luminescence ([4]; FIG. 5, temperature not given)
0.99 µM | B1 | 1.12 | 1.9 | 1.01 | not distinguishable from the parent enzyme | 64 days | 68 h | 100.5 hours | 31 h | 2.9 hours | 6.3 h | 430 h | 14 µM | – | – | – | –
1.6 µM | B2 | – | – | – | not distinguishable from the parent enzyme | 109 days | 220 h | – | 47 h | 38 hours | 15 h | 3000 h | 3.4 µM | 1.93 | 2 | 0.9926 | 144 hours
